This is an account of results in patent US20120121688A1, “PREVENTATIVE OR THERAPEUTIC AGENT AND METHOD FOR IMMUNE DISEASE” (Rinken, priority 2006, published 2012).

One assay has as its system B220+ cells (B cells). In words: Cytokine production by whole spleen cells co-cultured with B220+ cells (B cells) from spleen of administered mice (ELISA). Type of assay: cell-based, BDF1 mice. The note with it: B220+ cells from mice given 2 μg α-GalCer/mouse i.p., added to whole spleen cells; FIG. 1. As for the experimental part:
Aqueous α-GalCer or αGC liposome (International Publication WO2005/120574) at 2 μg α-GalCer/mouse was intraperitoneally administered to BDF1 mice, and after 24 hours, spleen was removed. The spleen was homogenized with a slide glass to prepare a cell suspension. Subsequently, anti-CD11c antibody magnetic beads (Miltenyi) were added thereto and CD11c^+ cells (DC) were prepared using a magnet. B220^+ cells (B cells) were prepared using anti-B220 mAb magnetic beads (Miltenyi) from the remaining cells which had not been bound to the magnet. Then, 2.5×10^5 whole spleen cells from the normal BDF1 mouse and 1×10^5 DC or 3×10^5 B cells derived from the spleen in the BDF1 mouse administered with aqueous α-GalCer or αGC liposome, suspended in 200 μL of culture medium were added in one well in a 96-well U bottom culture plate, and cultured in an incubator containing 5% CO2 at 37° C. Levels of cytokines, IFN-γ, IL-4 and IL-10 in culture supernatants after 24, 48 and 72 hours were measured by ELISA (FIG. 1).
A general note: An ELISA detects its analyte on a solid surface through an enzyme-linked reagent.

For assay [1], the system named is natural type Cryj1-specific IgE antibody. The assay can be described thus: Inhibitory capacity of recCryj1/2 protein for in vivo IgE antibody production. Further details: species or system BDF1 mice. Conditions: FIG. 10. As for the experimental part: BDF1 mice (female, 8 weeks of age, Charles River) were intraperitoneally immunized with 5 μg of purified Cryj1 (natural type Cryj1, Hayashibara Biochemical Laboratories Inc.) derived from the cedar pollen mixed with 2 mg of aluminium hydroxide gel adjuvant (RIKEN) at the start of the experiment (0day) and on the 14th day. On the 50th day, the boost immunization with 1 μg of natural type Cryj1 was given. Meanwhile, the blood samples were collected from the orbital venous plexus on the 14th, 29th and 57th days, and the levels of the natural type Cryj1-specific IgE antibody in serum were measured. Subsequently, on the 99th day, the levels of the natural type Cryj1-specific IgE antibody were measured in all mice, and the mice were divided into three group (5 mice in one group) so that average values of antibody titers were equal among the groups. On the 106th, 113th and 120th days, the recCryj1/2 protein (0.2 μg), the recCryj1/2 protein (2 μg), or saline was administered three times, and further the boost immunization with 1 μg of natural type Cryj1 was given on the 133rd day. The blood samples were collected from the orbital venous plexus on the 140th and 160th days, and the levels of the natural type Cryj1-specific IgE antibody in serum were measured.

In assay [2] the test system is natural type Cryj1-specific and recCryj1/2-specific antibody titers. In words: In vivo antibody production by immunization with recCryj1/2 protein or natural type Cryj1. Further details: species or system BALB/c×DBA/2F1 (BDF1) mice. As for the experimental part: BALB/c×DBA/2F1 (BDF1) mice (female, 8 weeks of age, five mice in one group, Charles River) were intraperitoneally immunized with 10 μg of purified Cryj1 (natural type Cryj1, Hayashibara Biochemical Laboratories Inc.) derived from the cedar pollen, or 5 μg or 10 μg of the recCryj1/2 protein mixed with 2 mg of aluminium hydroxide gel adjuvant (RIKEN) at the start of the experiment (0day) and on the 14th day. The boost immunization with 1 μg of natural type Cryj1 or 5 μg or 10 μg of the recCryj1/2 protein was given to each mouse on the 41st day. Furthermore, on the 81st day, the boost immunization with 1 μg of natural type Cryj1 mixed with 2 mg of aluminium hydroxide gel was given to all mice. Blood samples were collected from orbital venous plexus on the 13th, 28th, 55th, 76th and 95th days, and levels of natural type Cryj1-specific antibody titers and recCryj1/2-specific IgE antibody titers were measured. […] The recCryj1/2-specific IgE antibody titers on the 76th day were increased in mice immunized with the recCryj1/2 fusion protein (FIG. 8). Meanwhile, on the 28th and 55th day, natural type Cryj1-specific IgG1 and IgG2a antibody titers were increased in both mice immunized with natural type Cryj1 and recCryj1/2 (FIG. 9).

On to `CCCCCCCCCCCCCCCCCCCCCCCCCC(=O)N[C@@H](CO[C@H]1O[C@H](CO)[C@H](O)[C@H](O)[C@H]1O)[C@H](O)[C@H](O)CCCCCCCCCCCCCC` [aqueous α-GalCer, α-galactosylceramide], for which, in the assay with B220+ cells (B cells), the IFN-γ production entry is recorded as “not detected”, the IL-4 production entry is recorded as “not detected” and the IL-10 production entry was “not detected”.

B1: recCryj1/2 protein: His-tagged recombinant fusion protein of Cryj1 mature protein and Cryj2 mature protein, SEQ ID NO:9 (protein)
chain: MAHHHHHHSAALEVLFQGPSDNPIDSCWRGDSNWAQNRMKLADCAVGFGSSTMGGKGGDLYTVTNSDDDPVNPAPGTLRYGATRDRPLWIIFSGNMNIKLKMPMYIAGYKTFDGRGAQVYIGNGGPCVFIKRVSNVIIHGLHLYGCSTSVLGNVLINESFGVEPVHPQDGDALTLRTATNIWIDHNSFSNSSDGLVDVTLSSTGVTISNNLFFNHHKVMLLGHDDAYSDDKSMKVTVAFNQFGPNCGQRMPRARYGLVHVANNNYDPWTIYAIGGSSNPTILSEGNSFTAPNESYKKQVTIRIGCKTSSSCSNWVWQSTQDVFYNGAYFVSSGKYEGGNIYTKKEAFNVENGNATPQLTKNAGVLTCSLSKRCRKVEHSRHDAINIFNVEKYGAVGDGKHDCTEAFSTAWQAACKKPSAMLLVPGNKKFVVNNLFFNGPCQPHFTFKVDGIIAAYQNPASWKNNRIWLQFAKLTGFTLMGKGVIDGQGKQWWAGQCKWVNGREICNDRDRPTAIKFDFSTGLIIQGLKLMNSPEFHLVFGNCEGVKIIGISITAPRDSPNTDGIDIFASKNFHLQKNTIGTGDDCVAIGTGSSNIVIEDLICGPGHGISIGSLGRENSRAEVSYVHVNGAKFIDTQNGLRIKTWQGGSGMASHIIYENVEMINSENPILINQFYCTSASACQNQRSAVQIQDVTYKNIRGTSATAAAIQLKCSDSMPCKDIKLSDISLKLTSGKIASCLNDNANGYFSGHVIPACKNLSPS
modifications: His tag
Turning to B1, in assay [1] (127th day, 0.2 or 2 μg administered on days 106, 113, 120 to Cryj1-sensitized mice), the “natural type Cryj1-specific IgE antibody titers versus saline group” value is on record as “higher”. In assay [1] (160th day, increased in saline group), the “natural type Cryj1-specific IgE antibody titers after the boost immunization (133rd day)” value was “decreased”. Also, in assay [2] (28th and 55th day, FIG. 9), the “natural type Cryj1-specific IgG1 antibody titers” value is listed as “increased” and the “natural type Cryj1-specific IgG2a antibody titers” value is listed as “increased”. Also, in assay [2] (76th day, FIG. 8), the “recCryj1/2-specific IgE antibody titers” value is “increased”. Further, the “increase of the natural type Cryj1-specific IgE antibody after immunization with adjuvant and natural type Cryj1 on the 81st day” value in assay [2] (94th day, mice earlier immunized with 5 or 10 μg, FIG. 7) is “scarcely observed”. Moreover, the “natural type Cryj1-specific IgE antibody titers” value in assay [2] (days 28, 55 and 76, i.p. immunization with aluminium hydroxide gel days 0 and 14, boost day 41, FIG. 7) is given as “not increased at all”.
